Conditions: glycan lost; control: wild type

Protein | other: T cell antigenicity
MPT32 (also called Rv1860 or Apa): T10V (protein) parent chain: MHQVDPNLTRRKGRLAALAIAAMASASLVTVAVPATANADPEPAPPVPTTAASPPSTAAAPPAPATPVAPPPPAAANTPNAQPGDPNAAPPPADPNAPPPPVIAPNAPQPVRIDNPVGGFSFALPAGWVESDAAHFDYGSALLSKTTGDPPFPGQPPPVANDTRIVLGRLDQKLYASAEATDSKAAARLGSDMGEFYMPYPGTRINQETVSLDANGVSGSASYYEVKFSDPSKPNGQIWTGVIGSPAANAPDAGPPQRWFVVWLGTANNPVDKGAAKALAESIRPLVAPPPAPAPAPAEPAPAPAPAGEVAPTPTTPTPQRTLPA | no change
MPT32 (also called Rv1860 or Apa): T18V (protein) parent chain: MHQVDPNLTRRKGRLAALAIAAMASASLVTVAVPATANADPEPAPPVPTTAASPPSTAAAPPAPATPVAPPPPAAANTPNAQPGDPNAAPPPADPNAPPPPVIAPNAPQPVRIDNPVGGFSFALPAGWVESDAAHFDYGSALLSKTTGDPPFPGQPPPVANDTRIVLGRLDQKLYASAEATDSKAAARLGSDMGEFYMPYPGTRINQETVSLDANGVSGSASYYEVKFSDPSKPNGQIWTGVIGSPAANAPDAGPPQRWFVVWLGTANNPVDKGAAKALAESIRPLVAPPPAPAPAPAEPAPAPAPAGEVAPTPTTPTPQRTLPA | increases

Source: PMC5496856
